The target of this assay is T1, AtLEGβ catalytic AEP domain (up to the autocatalytic cleavage site Asn333) (Arabidopsis thaliana, UniProt Q39044 22-333).
T1 construct: Arabidopsis thaliana legumain isoform β, catalytic (AEP) domain up to the autocatalytic cleavage site Asn333; Removal of the His6 tag (cleavage within the TEV site) was only observed under very acidic pH conditions; also called catalytic domain; AEPβ
T1 sequence (looked up): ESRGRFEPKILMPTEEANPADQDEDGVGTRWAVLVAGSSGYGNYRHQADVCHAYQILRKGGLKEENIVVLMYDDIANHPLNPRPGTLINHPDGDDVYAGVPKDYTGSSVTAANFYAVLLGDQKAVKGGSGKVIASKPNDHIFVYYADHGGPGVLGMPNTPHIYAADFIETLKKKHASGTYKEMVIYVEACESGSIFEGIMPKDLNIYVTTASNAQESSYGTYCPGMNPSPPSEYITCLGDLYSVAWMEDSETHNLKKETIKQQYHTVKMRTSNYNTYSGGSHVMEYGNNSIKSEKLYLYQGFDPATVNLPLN
The assay is described as follows: SEC; pH 5.0-activated AtLEGβ on an S200 column, 20 mM citric acid pH 5.0, 100 mM NaCl; BSA as size standard. The note with it: both partners purified.

Here are results for one molecule from PMC7489914, “Structural and functional studies of Arabidopsis thaliana legumain beta reveal isoform specific mechanisms of activation and substrate recognition” (The Journal of Biological Chemistry, 2020).

B1: AtLEGβ AP-LSAM C-terminal fragment (Gln346–Ala486) (domain or fragment, Arabidopsis thaliana, UniProt Q39044 346-486, looked up)
chain: QRDADLLFLWHMYRTSEDGSRKKDDTLKELTETTRHRKHLDASVELIATILFGPTMNVLNLVREPGLPLVDDWECLKSMVRVFEEHCGSLTQYGMKHMRAFANVCNNGVSKELMEEASTAACGGYSEARYTVHPSILGYSA
notes: also called LSAM domain
For B1, the binding result was “binds”.
